# Laboratory results taken from US20220315628A1.
# B1: A. tumefaciens ClpS2 [Pro34 Arg35 Glu36], wild-type, expressed in and purified from E. coli (protein)
# chain: MGHHHHHHENLYFQGSDSPVDLKPKPKVKPKLERPKLYKVMLLNDDYTPREFVTVVLKAVFRMSEDTGRRVMMTAHRFGSAVVVVCERDIAETKAKEATDLGKEAGFPLMFTTEPEE
# What was measured:
# [1] = molecular target: F1G2 peptide (XGVECK-biotin with X = Phe); experiment: SPR dissociation curves; biotinylated peptide on streptavidin chip
# [2] = molecular target: Y1G2 peptide (XGVECK-biotin with X = Tyr); experiment: as above
# [3] = molecular target: W1G2 peptide (XGVECK-biotin with X = Trp); experiment: as above
# [4] = molecular target: F1G2 peptide (XGVECK-biotin with X = Phe); experiment: SPR, steady state; biotinylated peptide on streptavidin chip, protein in solution
# [5] = molecular target: Y1G2 peptide (XGVECK-biotin with X = Tyr); experiment: as above
# [6] = molecular target: W1G2 peptide (XGVECK-biotin with X = Trp); experiment: as above
# [7] = molecular target: W1G2 peptide (XGVECK-biotin with X = Trp); experiment: SPR; KD for the Trp peptide divided by KD for the Tyr peptide
# [8] = molecular target: W1G2 peptide (XGVECK-biotin with X = Trp); experiment: SPR; KD for the Trp peptide divided by KD for the Trp peptide
# [9] = molecular target: F1G2 peptide (XGVECK-biotin with X = Phe); experiment: SPR; KD for the Phe peptide divided by KD for the Phe peptide
# [10] = molecular target: Y1G2 peptide (XGVECK-biotin with X = Tyr); experiment: SPR; KD for the Tyr peptide divided by KD for the Trp peptide
# [11] = molecular target: Y1G2 peptide (XGVECK-biotin with X = Tyr); experiment: SPR; KD for the Tyr peptide divided by KD for the Tyr peptide
# [12] = molecular target: W1G2 peptide (XGVECK-biotin with X = Trp); experiment: SPR; KD for the Trp peptide divided by KD for the Phe peptide
# [13] = molecular target: F1G2 peptide (XGVECK-biotin with X = Phe); experiment: SPR; KD for the Phe peptide divided by KD for the Tyr peptide
# [14] = molecular target: Y1G2 peptide (XGVECK-biotin with X = Tyr); experiment: SPR; KD for the Tyr peptide divided by KD for the Phe peptide
# [15] = molecular target: F1G2 peptide (XGVECK-biotin with X = Phe); experiment: SPR; KD for the Phe peptide divided by KD for the Trp peptide
binder,measurement,setting,value
B1,koff,[1],0.93 s⁻¹
same,koff,[2],1.16 s⁻¹
same,koff,[3],1.32 s⁻¹
same,Kd,[4],13 µM
same,Kd,[5],63 µM
same,Kd,[6],18.4 µM
same,"Selectivity for Trp, Trp/Tyr",[7],0.29
same,"Selectivity for Trp, Trp/Trp",[8],1
same,"Selectivity for Phe, Phe/Phe",[9],1
same,"Selectivity for Tyr, Tyr/Trp",[10],3.43
same,"Selectivity for Tyr, Tyr/Tyr",[11],1
same,"Selectivity for Trp, Trp/Phe",[12],1.42
same,"Selectivity for Phe, Phe/Tyr",[13],0.21
same,"Selectivity for Tyr, Tyr/Phe",[14],4.86
same,"Selectivity for Phe, Phe/Trp",[15],0.71
